Assay results as given in publication PMC4319926, “Deciphering the Stepwise Binding Mode of HRG1β to HER3 by Surface Plasmon Resonance and Interaction Map” (PLoS ONE, 2015).

Columns and labels:
Conditions in all cases: both partners purified
HER3-Avi-biotin = target: T1, HER3-Avi-biotin (human, UniProt P21860 20-643, single biotin on the C-terminal Avi-Tag); test: SPR; assay D: Biacore T200, 25°C; HER3-Avi-biotin captured via streptavidin on CAP chip, no mAb208; HRG1β injected at 105-1.3 nM, 60 µl/min, 5 min association, 10 min dissociation; same sample buffer; evaluated by 1:1 Langmuir fit, two-state reaction model and Interaction Map
T1 construct: HER3 (ErbB3) extracellular domain with C-terminal Avi-Tag, singly biotinylated, MW 70 kDa; Printed MW 70 kDa; It was captured through streptavidin on a Biotin CAPture chip; also called bi-ECD3; biotinylated HER3-Avi; source: gift of pRED, Roche Diagnostics GmbH (Dr. Jürgen Schanzer); not shown: Avi-Tag, C-terminal, kept
T1 sequence (P21860 20-643): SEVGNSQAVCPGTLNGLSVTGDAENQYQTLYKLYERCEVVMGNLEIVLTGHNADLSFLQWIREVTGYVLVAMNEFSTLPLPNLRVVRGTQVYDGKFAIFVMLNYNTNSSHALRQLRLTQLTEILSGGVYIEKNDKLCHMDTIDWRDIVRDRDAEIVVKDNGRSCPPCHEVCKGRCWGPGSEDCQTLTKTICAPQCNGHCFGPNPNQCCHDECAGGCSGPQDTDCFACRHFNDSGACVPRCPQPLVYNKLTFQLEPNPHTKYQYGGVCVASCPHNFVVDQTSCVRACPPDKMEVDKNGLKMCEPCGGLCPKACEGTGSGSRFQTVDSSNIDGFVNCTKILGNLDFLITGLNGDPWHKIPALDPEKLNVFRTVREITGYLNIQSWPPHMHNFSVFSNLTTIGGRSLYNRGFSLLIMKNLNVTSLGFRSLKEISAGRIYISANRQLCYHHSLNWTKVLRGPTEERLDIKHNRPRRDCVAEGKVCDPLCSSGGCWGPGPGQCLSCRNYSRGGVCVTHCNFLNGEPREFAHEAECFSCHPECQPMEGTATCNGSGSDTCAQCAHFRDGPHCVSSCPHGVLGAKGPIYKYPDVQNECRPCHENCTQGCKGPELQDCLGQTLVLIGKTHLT

[1] = target: T2, human HER3 extracellular domain (human, UniProt P21860 20-643); test: SPR; assay C: Biacore T200, 25°C; HER3 bound to mAb208 captured by immobilised rabbit anti-mouse antibody on CM5; HRG1β injected at 105-1.3 nM, 60 µl/min, 5 min association, 10 min dissociation; 10 mM HEPES pH 7.4, 150 mM NaCl, 1 mM EDTA, Tween 20, 1 mg/ml carboxymethyldextran; evaluated by 1:1 Langmuir fit (apparent), two-state reaction model and Interaction Map
T2 construct: HER3 (ErbB3) receptor extracellular domain, human, MW 68 kDa; Printed MW 68 kDa; also called ECD3; HER3-ECD; source: from Dr. Birgit Bossenmaier, Roche Diagnostics GmbH, Penzberg
T2 sequence (P21860 20-643): as above

[2] = target: T2, human HER3 extracellular domain; test: as above; remark: listed apart in the source

B1: human heregulin β1 (ligand, UniProt Q02297-6 20-246, looked up)
chain: SGKKPESAAGSQSPALPPRLKEMKSQESAAGSKLVLRCETSSEYSSLRFKWFKNGNELNRKNKPQNIKIQKKPGKSELRINKASLADSGEYMCKVISKLGNDSASANITIVESNEIITGMPASTEGAYVSSESPIRISVSTEGANTSSSTSTSTTGTSHLVKCAEKEKTFCVNGGECFMVKDLSNPSRYLCKCPNEFTGDRCQNYVMASFYKHLGIEFMEAEELYQK
notes: heregulin β1 (neuregulin-1, beta 1 isoform), human, MW 25 kDa; The printed MW of 25 kDa is larger than an EGF-like domain alone; also called HRG1β; Heregulin 1 beta; source: from Dr. Birgit Bossenmaier, Roche Diagnostics GmbH, Penzberg
Kd (HER3-Avi-biotin): 380 pM | koff (HER3-Avi-biotin): 0.0046 s⁻¹ | kon (HER3-Avi-biotin): 1.2e+07 M⁻¹ s⁻¹ | stoichiometry N (HER3-Avi-biotin): 0.84 | stoichiometry N [1]: 0.5 | Kd [2]: 330 pM | koff [2]: 0.04 s⁻¹ | kon [2]: 1.2e+08 M⁻¹ s⁻¹ | stoichiometry N [2]: 0.56
